A protein production outcome set (Wang et al. 2014)

Test: label from the status in PepcDB records
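Also: failed if final PepcDB status was selected cloned or expressed and not failed if soluble or beyond.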

Sequence	protein production
MACARAWRTMSPCGGKQVHPLQECGLCSAPAGVARTHARQGADPMLPELGTFLLVLALLVALVQAVVPLAGAQRGRSSWMAVARPAAMVQLALIASAFAVLTHAFLVQDFSVRYVAENSNSLLPMMYRYSAVWGAHEGSLLLWTLVLALWTGAVAIWSRQLPAHVIARVLGVMALVSIGFLAFLLFTSNPFARLFPVPLEGGDLNPLLQDPGLIVHPPMLYCGYVGFAVPFAFAIAALLEGRMDARWLRWTRPWTNVAWSMLTVGIALGSWWAYYELGWGGWWFWDPVENASFMPWLVGTALLHSQAVTEKRGSFASWTLLLAIAAFALSLLGTFLVRSGVLTSVHSFAADPSRGLFILVFLLLVVGGSLVLYALRAPRLSLVDDPRRAFAGSSRETLLLLNNLLLTCACAMVLLGTLYPLLADALGLGKLSVGPPYFGTLFVVLMAPLVALVPFGPLTRWQREQASRPLAMLAPWAGLALAAGVLAWFAAPQGQLKAAVGVAGAAWVLLGTARFLWTRRAAKGRKFTPEMLGMVLAHLGVAVFLSGALLVEGLSLQREVALAPGQQVQIGRYALHFDGLEELRGPNYVSDRANLQVLKDDAPVGVVHAEKRRYASGGQTLTEAAIRPGPFGDLYVALGEPLGNQAWAVRVHLKPFVRWIWLGALLMALGGLVTAADRRFRRSPEIQDG	failed
MNLNQLDIIVSNVPQVCADLEHILDKKADYANDGFAQFTIGSHCLMLSQNHLVPLENFQSGIIIHIEVEDVDQNYKRLNELGIKVLHGPTVTDWGTESLLVQGPAGLVLDFYRMK	not failed
EQLPVLQTVPFAGSAEPVSLTRESVERSVGEANMQEQRKRVHAMLRDYELQLRINSDASQQDAHLTPDSE	not failed
AIPQHEHPMIIAGFGRFGQIIARNARLNHIGFTAIDNNLQQIDFVRRYGGTLYYGDITQPDILRAAGIEKAKVFILAIDDVEDSMNVARHIRLNYPQITLMVRARDRYQVHLLRDLGVEHIWRETYLSSLGMAYRALCELGIP	failed
MNALARLRGRKVVPQRSDGELDAMAAAGAVVAAALQAVRAAAVAGVSTLSLDQIAESVIRDAGAVPSFLGYHGYPASICASVNDRVVHGIPSAAEVLAPGDLVSIDCGAVLDGWHGDAAITFGVGALDPADEALCQGTRESLEAGIAAMVPGNRLTDVSHAIELGTRAAETRHGRAFGIVEGYGGHGIGRQMHMDPFLPNEGSPGRGPLLAPGSVLAIEPMLTLGTGKTVVLDDQWTVITTDGSRAAHWEHTVAVTDAGPRILTIG	failed
MGKYFFSETEIKNSWDLVLTAFWQRYPNPFSSHVLTEDVLFRKVTSENLLVSRRLFTKTNRLPRWAERIFPGRRSVYIIEDSVVDLSNRSLTTMTWNVNHAKLMRVVERCVFTGEQDRPVWTHITRQAWISSGVFGLSRPIQEFGLARFRSNQLKAMKGMEHAISNLQKASSSCHGESAEKPKNVNPAAKNAQKPQQYI	failed
SKQPTSAENSVAKKEDKVPVKKQKTRTVFSSTQLCVLNDRFQRQKYLSLQQMQELSNILNLSYKQVKTWFQNQRMKSKRWQKNN	not failed
FKAVTYVADPVDVTYQSLNVSVPVEIDGKAVDASHAPIVFSNAVGGYMPSSTAGNTGIGQGVNAKLSLASGFVVVDPGARGRTLVDTAGVYYGVAPAAIVDLKAAIRYLRHNKGRVPGDTDRIVATGVSAGGALTSLLGASGDSDRYAPYLQELGAADASDAVFAAAPYCPITDLEHADMAYEWNWGTNPLPTGAQVDQTLSKELRSGFAEYQASLNLRGKNGFGRITARNYDAYMVKTHLEPSATRYLGALPDADRAAYLTANPWITWSGGRASFGWGDFLTHVGARKKNVPSFDTFTLAAPENNLFGVATTKARHFTQWSLRKATGDDGARLDADLPEKIDLMNPMYFIEHQNPGRSRHWFIRVGTKDSDTSLTVVGNLTAGLENLGDDVDTYMYWDGGHGANQDAPDFITWIRSVSG	failed
MPNSRLEGELPGGGVVTFDTDLPIAAHADEIADLIKHHQVVVVAGETGSGKTTQLPKICLALGRRQIAHTQPRRIAARSVAERVAEEMGVELGEQVGYQVRFTRRASSDTALTVMTDGVLLAEISHDRDLCAHDTIIIDEAHERSLNIDFLLGYLKQLLPRRPDLKVIITSATIDTARFSAHFDDAPVIEVSGRTYPVEVRYRPLDPSEQIRPDDEDDIDDEDELLHRPSAPSLTSPDDEVVDQVTGICRAVQELCREESGDILVFLAGEQEIRETAEALADLNLSNTEVLPLFARLSAAEQHRVFTPHTGRRIVLATNVAETSLTVPGIRYVIDPGTARISRYSVRTKVQRLPIEPVSQASANQRAGRCGRVAPGICIRLYSQTSFESRPEFTEPEILRTNLAAVILQMAQARLGAITDFPFVEAPDRSRINDGIRLLDELGALKPGHRDASRLTKIGHQLARVPLDPRLGRMLLEGARQGSLAEVLVIVAALSIRDVRERPADKREEADAFHRRFATEANLLQTLQAADNTDNNQVGDWSQVRRQHIHQEAANTAKPGPPARHTPHTRGKISPRPQAGGIDEGGDIMAIHRLWRYLRHQRRQMGSSAFRRMCRAEYINYLRVREWDDLHGQLRQIAKELHLEVNRTSAPTDRVLVALLSGLLSHIGLVQVRQPAKRHGQRPGPQEYLGARGTKFAINPGSLLARKSPELVVAVELVETSRLWARTVAAVQPEWVEEVAGPLIRRSWAVPHWAASTASVVATERGTLFGVPLWADRRVTYGRIDPVASRQIFIRSALVERNWRSDHGFLKHNDRVRDEAADLEERSRQRGLVADDDAIFAFYDRRIPDGIVSGSHFDAWWRRVQDRHQLDLSIDDLVDSGSVDADAFPDHWKVGNLELPVRYVFEPGSGHDGVTVTIPLALLNQVPTAPFSWQVPGLRTELATELIRALPKRIRTQLVPAPDRARAALTWLEDHDADRHAPFTNELGRALRTLTGVIINPDDWNIAAIPAHLRIGFDITDAEGRPVGKKSKKNGKDKLKGSQPAPIARSEDLDALQTDLAPKVSQSLTKAAGQPQIHGAKEWTFDPIPKRVDLSRKGPDAVGYPCLVDEGDSVGTTVLDTPRAQRTSHASGVVKLLVLNLPDPTKWVVTHMDNATKLALATSPYPSVPALLADARHKAVASVAQEKAGDLSGIRDKKTFDDLALVVRQDQADRMARVVRTAGRILSRVVAARQALATVSDPAIHADIVAQIDDLVFENFISATPDPWYDDMPRWIQGVSVRIESLMTNPSRDPRQMAELEPLLADYDALCEEQPAGKLPAEVEEIGFMLEELRVQYFAQKLGTRVSVSPKRIRMAIAKLS	failed
MDRNLVQKGDAPPSKRSDPGTEFCVDIVVKGRKTEVPERFRKHVAEKLKLEKIQKLDGKVISLDVEVSKEPNPRQADRCDRVEITLRSRGPVIRAEAAASDPYAALDLAAEKLGARLRKQHDKRFSRRGARRISAAEVADHVPGAATLNGNGDVVPTEKQDGVPTKKIGSLEVQGDGPLVVREKTHVAAPMSLDQALYEMELVGHDFYLFVDSETKEPSVVYRRHAYDYGVIHLTTDTMVTQAHAPDAGDALGGLEHHHHHH	failed
MSEANSGPGRVTREQRGHLFLIGLDRAGKRNAFDSAMLADLALAMGEYERSEESRCAVLFAHGEHFTAGLDLMELAPKLAASGFRYPDGGVDPWGVVQPRRSKPLVVAVQGTCWTAGIELMLNADIAVAARGTRFAHLEVLRGIPPLGGSTVRFPRAAGWTDAMRYILTGDEFDADEALRMRLLTEVVEPGEELARALEYAERIARAAPLAVRAALQSAFQGRDEGDDAALSRVNESLAALIGSEDVREGVLAMV	not failed
MLPVLETTAHSPLTIVWFVLITVLWVGFFFLEGFDFGVAMLLPFLGRDDKDRRLMVNTIGPTWDGNEVWLLTAGGATFAAFPGWYATMFSGLYLPLLLVLLGLIVRGVAFEYRSKNPSSSWRNAFDWMATIGSFLPTLVLGVGFANFVRGLAVGPHSTPDGGTAPLVTTSFWGLFTPFALIGGILFVVLFCAHGANFVALKTMGDMHDRARKTSAKLGWIATVVALVWALMFNIMYVTRDGRQVLTWIICLLVVVLLAAGSAVVAKGREGLAFLCTALGIALMIVACMFAMYGNLGYRPSGIAFDMWIASATGRTLKIMTISACVFVPIVLAYQVWSYWVFRKRLTREAIPDTAVAA	failed
MEKAVHSSTTSGPAVPGETTKTGTSIIDTAASAVQSFAPVNQIHQHLCAFHFYADDMARQVEAHHFCSHVNEEMRQCLIYDGPDANARLIGLEYIVSEKLFMTLPDEEKKLWHSHEWEVKGGFLFMPGVPGAIQRKDLDKVAKTYGKVFHFWQVDLGHELPIGLPNVMMAVTRDGQLFHEMIQEAEKRFGVSVEGERDSRAYMSGPELGIHPLANGGGKGMKLELREVDIKPVESVGSVFV	failed
MTGASRARMHQLEREGDRPAKRVNKLLSDQETMIGAVLLGNNLINILASALATQVLTTLIPGPWGVAVATAAMTVLILIFAEVLPKTLAIVRSDDVARALSAPTLFIVRLFGPIIYAIQWIVRRTLRVFGVKLDMAVDVLAAHEEIRGAVDYHHSEGLVETDDRRMLGGVLDLSDMDVSEIMVHRKSMVLLDAGLPARELVDAVLEAQHTRIPLYRDQPDNIVGVLHARDLLKALAECPTGVEGLDIAAILREPWFIPDATNLKDQLNAFLKRKNHFALVVDEYGALQGLVTLEDILEEIVGEIEDEHDTTLDGVRRQGDGSVNVDGHVTVRDLNRAMDWRLPEGEAVTIAGLVIHEAQMIPEPGQTFIFYRHRFQVLRRQRNQITALRISARLDDDSDA	failed
MVLVLDFGSQYTRLIARRLRELRAFSLILPGDAPLEEVLKHRPQALILSGGPRSVFDPDAPRPDPRLFSSGLPLLGICYGMQLLAQELGGRVERAGRAEYGKALLTRHEGPLFRGLEGEVQVWMSHQDAVTAPPPGWRVVAETEENPVAAIASPDGRAYGVQFHPEVAHTPKGMQILENFLELAGVKRDWTPEHVLEELLREVRERAGKDRVLLAVSGGVDSSTLALLLAKAGVDHLAVFVDHGLLRLGEREEVEGALRALGVNLLVVDAKERFLKALKGVEDPEEKRKIIGREFVAAFSQVARERGPFRFLAQGTLYPDVIESAGGHGAAKIKSHHNVGGLPEDLEFELLEPFRLLFKDEVRELALLLGLPDTLRLRHPFPGPGLAVRVLGEVTEERLEILRRADDIFTSLLREWGLYEKVAQALAVLTPVRSVGVAGDERKYGYVLALRAVTTEDFMTADWARLPLEFLDEAARRITRRVPEIGRVVYDLTSKPPATIEWE	not failed
MTKITVLSGKGGTGKTTVSVNMAKALSESYRVQLLDADVEEPNDHIFFNVDVSFEEPVHLMIPVVDNSVCIRCGECASTCQFGAISVFPSGTFVFESLCHGCGACSIMCPVNAISERPKEIGKIRFGTADGNISFGMGILNIGERTGVPVIRKLKKHIDEKADVVIVDAPPGTSCPVVESLRNTDFALLVTEPTAFGLHDLKLAVELTKEMGIPSGIVVNRYIPGNTIIEEFADEEGIPVLLKIPFKREIASLCAEGKLIVEAFQDMKKDFLELFEKIEVMVRLEHHHHHH	not failed
MSNKIVTLEINLEPSDNRRLASLCGPFDDNIKHLERRLGVEINHRSDHFTIVGKPHTSAAALDILKTLYVDTAPVRGEIPDIEPEQIHLAIKESGVLEQNTESSIAHGKEVFVKTKKGVIKPRTPNQAQYLVNMVTHDISFGIGPAGTGKTYLAVAAAVDALERQEIRRILLTRPAVEAGEKLGFLPGDLSQKVDPYLRPLYDALFEMLGFERVEKLIERNVIEVAPLAYMRGRTLNDAFIILDESQNTTVEQMKMFLTRIGFNSRAVITGDVTQIDLPRGAKSGLRHAIEVLSEVDDISFNFFQADDVVRHPVVARIVNAYEKWEAQDQKERKEFEKRRREERDAKLLEAAKAELSAQVAATKE	not failed
FEELLNALHDGVYITDGQGQTLKVNQAYERLTGLNGAELLGRPMQELVKSGVISQSASLRVLQDGRPVSVMQSLSHGKKLLVSATPILAADQSIRYVVSTVRDMTELLRIKRERDELQQL	failed
MASFDGQGFMMVDNSWVQTKAIDVESTTDISPYLSKILEDSVWNGNRSIVFDVYWDVKSVSTKSEWRLCSVKFSTKNFCLFLRLPNPFCDNLKDLYRFFASKFVTFVGVQIQEDLALLKENHGIVIRSSLEIGKLAAKARGTPIVEFLGTRELAHKILWYDMSRLDSIQSKWDEASSNDRLEAAAIEGWLIFNVYDQLQQ	failed
